In article PMC3173227 (The Journal of Biological Chemistry, 2011):
One block for each molecule: values may come before it.

B1: human Ube2T (enzyme, UniProt Q9NPD8 1-197, looked up)
chain: MQRASRLKRELHMLATEPPPGITCWQDKDQMDDLRAQILGGANTPYEKGVFKLEVIIPERYPFEPPQIRFLTPIYHPNIDSAGRICLDVLKLPPKGAWRPSLNIATVLTSIQLLMSEPNPDDPLMADISSEFKYNKPAFLKNARQWTEKHARQKQKADEEEMLDNLPEAGDSRVHNSTQKRKASQLVGIEKKFHPDV
B2: human FANCL RING domain (residues 289-375) (domain or fragment, UniProt Q9NW38 289-375, looked up)
chain: EIDFPARAILEKSDFTMDCGICYAYQLDGTIPDQVCDNSQCGQPFHQICLYEWLRGLLTSRQSFNIIFGECPYCSKPITLKMSGRKH

Assays:
[1] = target: human FANCL RING domain (residues 289-375) (human) (UniProt Q9NW38); assay: ITC
[2] = target: B2; assay: SEC
human Ube2T = target: B1; assay: ITC

Kd [1]: 5 µM
Molecule: Ube2T-F63A (from UniProt Q9NPD8 1-197) (enzyme)

Molecule: B1
stoichiometry N [2]: 1

Molecule: B2
Kd (human Ube2T): 454 nM
